# Reference: the DeepSol protein solubility set
# Assay: soluble on expression in E. coli; label from the status in PepcDB or PDB records
row,Sequence,soluble on expression in E. coli
1,TITLTENKRKSMEKLSVDGVISALAFDQRGALKRMMAQHQTKEPTVEQIEELKSLVSEELTPFASSILLDPEYGLPASRVRSEEAGLLLAYEKTGYDATTTSRLPDCLDVWSAKRIKEAGAEAVKFLLYYDIDGDQDVNEQKKAYIERIGSECRAEDIPFYLEILTYDEKIADNASPEFAKVKAHKVNEAMKVFSKERFGVDVLKVEVPVNMKFVEGFADGEVLFTKEEAAQAFRDQEASTDLPYIYLSAGVSAKLFQDTLVFAAESGAKFNGVLCGRATWAGSVKVYIEEGPQAAREWLRTEGFKNIDELNKVLDKTASPWTEKM,soluble
2,TKDFNWNSTFNIAYNSSDVKYLGIDGTGEKIKRLTLDGANSRVGSVSVQNILGHPYGELVGYEYKRTSDGQVIFENGLPVHSDEVQVLGNGVYKVTGGWRNEFTYKNITLSFLIDFKAGAKMFSGTNLSLYSNGLHKNTLQGRGADGKGTMVGNGVMSDGKGGYVKNTVAVSAQDYWQAITSQNIAEEFVYNASFIKLRELSVGYTLPQAWLNKQTLIKGVTLSLVGRNLWTILKHTDNIDPESAYNNGNAQGLELNGYPATRNVGFNVNVKF,not soluble
3,TKRYYKSAFPVRICVIQYEMKKIYSFEEFANQVEYYVDVASDARSDFAVFPEIFTTQLMSFLEERSPSLAVQRITEYTEDYISLFTDLAVKYNVNIIGGSHFVEEEGKIYNIAYLFRRDGTIEKQYKLHITPNERKWWGISAGDQVRVFDTDCGKIAIQICYDIEFPELARIAADKGAKIIFTPFCTEDRQGYLRVRYCSQARAVENQIYTVISGTVGNLPQTENMDIQYAQSGIFAPSDFEFARDGIVGETNPNIEMVVIGDVDLEILRRQRQNGTVRQLKDRRRDIYHIQYKK,not soluble
4,TLAQPVTIREIAEPPKIRLPRHLRQTYIRKVGEQLNLVVPFQGKPRPQVVWTKGGAPLDTSRVHVRTSDFDTVFFVRQAARSDSGEYELSVQIENMKDTATIRIRVVEKAG,soluble
5,TLAYKEGFYYKPRIDYELLEKYGEGLIALTACLKGVPTYYASINEVKKAEEWVKKFKDIFGDDLYLELQANNIPEQEVANRNLIEIAKKYDVKLIATQDAHYLNPE,soluble
6,TLINHLKSLKSQVSAKSASETSQTKQNKTFLAFTTVNADQKAIFDVGKLNGKTAKIIINATETTNAKISTLQEKEAIVLKAPQRFESTDPFPI,not soluble
7,TMSHGFGVMAGINLTKNIGVQAEVNYYQINQKYADGNLNRDLTINYFNIPVLLSLNTNKAAPVNLNLVAGPQFGINAGSKFETSGNGNTDSTTAVVALRKGDVGVAYGAGLEFALNKSHSVRLDLGFRGFYGLVNMDSSTNGQGTYNVIVSASRKTYGGYAGITWMF,not soluble
8,TNRLSAYTSHRISKYNDRQTNTSLDINIGKFSSNTNYFFYHTDGWQNSPFEIKKKKGSGEPVLEETYKKTFRAQENQGVSQSLSYYATNNLSFSGNVQYNKRQIFTPTFSEKKAYDMDYRALTASLGTNYLFPNGLHTLSFDAVYDRFRFGYLYHDKDSSESLINNQGQTEQPTFFPGQLRNKNDQIRYTAEARGVFTLPYAQKLTGGLEYFREELISPYNLITDKADASTLSAYVQDEWKPLDWFNMTAGFRLVHHQEFGTRMTPKVSILAKYGPLNFRATYANGYKTPTLKELFARNELTTMGSHNLYLGNADLKPQMSDYYALGLEYNQGPISFSATVYDNELRNLISFMDIPTSPEHEAQGIKKTKQYANIGKARSRGLDVLCDASIGWGIKLGAGYSLVEAKNLQTDEWLEGAARHRANVHADWVHYWGQYRLGVSLFGRIQSERYYKDGNAPDYTLWRLATSHRFAHFRHIILDGTLGIDNLFDYVDDRPMGVNYATVTPGRTFFAQIAIRFNN,not soluble
9,TTFENKKVLVLGLARSGEAAARLLAKLGAIVTVNDGKPFDENPTAQSLLEEGIKVVCGSHPLELLDEDFCYMIKNPGIPYNNPMVKKALEKQIPVL,not soluble
10,TVAVSQIVEHPALDATRQGLLDGLKAKGYEEGKNLEFDYKTAQGNPAIAVQIARQYVGESPDVLVGIATPSAQALVSATRTIPVVFTAVTDPVGAKLVKSMKQPGKNVTGLSDLSPVAQHVELIQEILPQVKSIGVVFNPGEANAVTLVNLLKESAEAKGIKVVEATALKSADVQSATQAIAAKSDILYAPTDNTVASAIEGMIVAANQAKKPVFGGATSYVEKGAIAGLGFDYYQVGVQTADYVAAILDGQEPGKLDVKVATGSDLVINESAASKLGIQLPSSVVQRATSMQ,not soluble
11,TVEAKNETFAPQHPDQYLSWKATSEQSERVDALAEDPRLVILWAGYPFSRDYNKPRGHAFAVTDVRETLRTGAPKNAEDGPLPMACWSCKSPDVARLIQKDGEDGYFHGKWARGGPEIVNNLGCADCHNTASPEFAKGKPELTLSRPYAARAMEAIGKPFEKAGRFDQQSMVCGQCHVEYYFDGKNKAVKFPWDDGMKVENMEQYYDKIAFSDWTNSLSKTPMLKAEHPEYETWTAGIHGKNNVTCIDCHMPKVQNAEGKLYTDHKIGNPFDNFAQTCANCHTQDKAALQKVVAERKQSINDLKIKVEDQLVHAHFEAKAALDAGATEAEMKPIQDDIRHAQWRWDLAIASHGIHMHAPEEGLRMLGTAMDKAADARTKLARLLATKGITHEIQIPDISTKEKAQQAIGLNMEQIKAEKQDFIKTVIPQWEEQARKNGLLS,soluble
12,TVESNWGGAILIGSDFDTVSATANVPSASGGSSAAGTAWVGIDGDTCQTAILQTGFDWYGDGTYDAWYEWYPEVSDDFSGITISEGDSIQMSVTATSDTSGSATLENLTTGQKVSKSFSNESSGSLCRTNAEFIIEDFEECNSNGSDCEFVPFASFSPAVEFTDCSVTSDGESVSLDDAQITQVIINNQDVTDCSVSGTTVSCSYV,soluble
13,TVGILWVNWDSRVRYANRAVESMLGYAPGQVVERPLIDFEPDLHMDRWLNLWKNARSSEDSAQVFETHCLRADGSLLPADVSLSFLRFR,not soluble
14,TVVCDNGYGDLAATSALTTVIKDPISLTIKDIYEHGVKNPFTKIIHKLKKFIRYRKVLRWSRMWWVLLVREIVGDNTIEKKTEKALREIWDQCTIAVYNNTLNAVESKPLLFLHGILNECRNNFATKLRQDPSLIVAKIDQIIKSQIYRFWVSEPYLKIGRSHTLYTHITPDAVPQLPKECTLKHLSSYMEEKLKSMESKKNIESGKYEFDVDSSETDSTKDDGKPDDDDDDDDNFDDDDNFDDDTVEEEDASGDLFKNEKKDENKE,soluble
15,TYDSLKESTARDTGHLTLTTPGYFAKEEEMPLSNGLSHADEITKQLIGLSEVRGVQPRVEFSGLISNGSKSSIFIGIGVNEREFDMKGPFLDVRDGQTLSNIHASRYDASEPEVMLGVDLASNLSVNVGDWITLLATTTDGALNAYDFKVRGIYSTGVPELDKRQLYVHINSAQSLLGSDKVSALSVFLFDTCLTNKVEQQVATILNKQKPSFGDQEVEITPWQERAFFYLKVKDLYDR,not soluble
16,VDAFVGTWKLVDSKNFDDYMKSLGVGFATRQVGNMTKPTTIIEVNGDTVIIKTQSTFKNTEISFKLGVEFDETTADDRKVKSIVTLDGGKLVHVQKWNGQETSLVREMVDGKLILTLTHGTAVCTRTYEKQA,soluble
17,VDHLHIVGDVYDRGPYPDKIMDTLMNYHSLDFQWGNHDILWMGAASGSRVCAANVIRISARYLNLDILEDSYGISLRPLALFADEIYKNDPCTYFQPKNEDNLNYSKAEITQIARMHKAISIIQFKLEGEIINRRKEFDMNHRLLLQMIDYKKGTIHLKGKDYQLLDTHFPTIDPNDPYKLTKEEKELIEKITASFKNCRRLQKHVQFLYSKGSMFLTYNGNLLYHGCIPLYEDGTFMEMKLRGENFSGRELLEQFEILTREAYVRKPGTKEKKYACDIVWYLWTGAVSSLFGKSEMTTFERYFIAEKETHKEEKNPYYKLRNEETICKQILEEFGLDGECGHIINGHTPVKEGKGESPIKANTKMLVIDGGFAKAYHKETTLAGYTLLYNSY,not soluble
18,VDYKEWYDLRIEALQMQAQMHRSPLRGLIGARVGLIPHQLYIAHEVGQRFAPRVLLADEVGLGKTIEAGLIIHQQLKTGRAERILILVPDSLQYQWMIEMRRRFNLQFSLFDLTRTASIKEHDPDLNPFLTEQCIIASVDLMVDHDDLREQALEAGFDLLVVDEAHHLMWNEEEGGNDRYDLVEELAQQTPGVLLLTATPE,not soluble
